Laboratory results as given in publication PMC5026585 (ACS chemical biology, 2016).
pKd: −log10 of the molar value. Where a SMILES comes first, the peptide text is derived from it. [ ]: non-standard residue; d: D form. The star is where a group is joined. Benzoyl(4-tBu) = CC(C)(C)c1ccc(C(=O)*)cc1; Lys(Et2) = CCN(CC)CCCC[C@H](N)C(=O)O

Key:
CDYL chromodomains = test: selectivity profile of UNC3866, CDYL chromodomains; assay type: binding; settings: reduced potency relative to CBX7 and CBX4
chromodomain of MPP8 = test: selectivity profile of UNC3866, MPP8; assay type: binding; settings: reduced potency relative to CBX7 and CBX4
[1] = target: PRC1 chromodomains (CBX2, -4, -6, -7, and -8); settings: cited from earlier work
[2] = target: CBX8 chromodomain (chromobox protein homolog 8); test: fluorescence polarisation
[3] = target: CDY1 chromodomain (Testis-specific chromodomain protein Y 1); test: fluorescence polarisation
[4] = target: CBX7 chromodomain (chromobox protein homolog 7); test: fluorescence polarisation
[5] = target: CDYL2 chromodomain (Chromodomain Y-like protein 2); test: fluorescence polarisation
[6] = target: MPP8 chromodomain (M-phase phosphoprotein 8); test: fluorescence polarisation
[7] = target: CDYL chromodomain (Chromodomain Y-like protein); test: fluorescence polarisation

Row | Compound | selectivity, CDYL chromodomains relative to CBX7 and CBX4 (CDYL chromodomains) [fold] | selectivity, MPP8 relative to CBX7 and CBX4 (chromodomain of MPP8) [fold] | pKd [1] | pKd [2] | pKd [3] | pKd [4] | pKd [5] | pKd [6] | pKd [7]
1 | CCN(CC)CCCC[C@H](NC(=O)[C@H](CC(C)C)NC(=O)[C@H](C)NC(=O)[C@H](Cc1ccccc1)NC(=O)c1ccc(C(C)(C)C)cc1)C(=O)N[C@@H](CO)C(=O)OC [UNC3866] ({Benzoyl(4-tBu)}-FAL[Lys(Et2)]S-OMe) | ~8 | ~30 | ~7.00 |  |  |  |  |  | 
2 | UNC3866-FAM (peptide) |  |  |  | 6.18 | 5.19 | 7.03 | 6.15 | 5.32 | 6.00
